# Where no end group is shown, it is not given here. [ ]: non-standard residue; d: D form. The star is where a group is joined. Val(3-OH) = CC(C)(O)[C@H](N)C(=O)O; Tle = CC(C)(C)[C@H](N)C(=O)O; Ac6c = NC1(C(=O)O)CCCCC1; NHCH2tBu = CC(C)(C)CN*; Aib = CC(C)(N)C(=O)O; NHiPr = CC(C)N*; Sar = CNCC(=O)O
# T1: human angiotensin 2 type 1 receptor (human, UniProt P30556 1-359)
# T1 sequence (looked up): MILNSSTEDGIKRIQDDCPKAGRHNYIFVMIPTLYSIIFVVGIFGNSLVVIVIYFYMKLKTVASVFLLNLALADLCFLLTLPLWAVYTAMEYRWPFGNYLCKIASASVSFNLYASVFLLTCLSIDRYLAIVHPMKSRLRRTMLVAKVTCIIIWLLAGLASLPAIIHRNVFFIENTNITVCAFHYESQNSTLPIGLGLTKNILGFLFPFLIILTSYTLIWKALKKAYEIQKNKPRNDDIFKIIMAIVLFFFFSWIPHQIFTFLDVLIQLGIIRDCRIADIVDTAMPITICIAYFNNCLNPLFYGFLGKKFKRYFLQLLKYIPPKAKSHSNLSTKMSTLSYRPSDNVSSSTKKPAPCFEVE
# T2: rat angiotensin 2 type 1 receptor (rat, UniProt P25095 1-359)
# T2 sequence (looked up): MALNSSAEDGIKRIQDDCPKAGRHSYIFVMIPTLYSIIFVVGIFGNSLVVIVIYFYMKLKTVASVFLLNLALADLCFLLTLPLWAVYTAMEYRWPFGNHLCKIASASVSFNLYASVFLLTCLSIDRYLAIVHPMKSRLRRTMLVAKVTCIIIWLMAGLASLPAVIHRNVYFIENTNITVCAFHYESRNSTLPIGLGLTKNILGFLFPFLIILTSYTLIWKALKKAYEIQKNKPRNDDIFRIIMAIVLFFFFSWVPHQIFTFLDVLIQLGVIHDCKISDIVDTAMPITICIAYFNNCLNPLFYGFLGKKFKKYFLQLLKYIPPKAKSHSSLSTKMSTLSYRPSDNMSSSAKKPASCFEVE
# What was measured:
# Test in all cases: cell-based or functional assay
# [1] = biological target: T1, human angiotensin 2 type 1 receptor
# [2] = biological target: T2, rat angiotensin 2 type 1 receptor
# [3] = biological target: T2, rat angiotensin 2 type 1 receptor; remark: listed apart in the source
# [4] = biological target: T1, human angiotensin 2 type 1 receptor; remark: listed apart in the source
Binder,beta-arrestin2 assay EC50 [1] [nM],beta-arrestin2 assay Span [1],beta-arrestin2 assay pEC50 [1],IP1 G-protein assay EC50 [2] [nM],IP1 G-protein assay Span [2],IP1 G-protein assay pEC50 [2],beta-arrestin2 assay EC50 [3] [nM],beta-arrestin2 assay Span [3],beta-arrestin2 assay pEC50 [3],IP1 G-protein assay EC50 [4] [nM],IP1 G-protein assay pEC50 [4],IP1 G-protein assay Span [4]
[Sar]RVY[Ac6c]HP-NHCH2tBu [SEQ ID NO: 47 (Sar-Arg-Val-Tyr-cyHex-His-Pro-NH-neopentyl)],> 3.2,< 101,< 8.5,,,,,,,,,
[Sar]RVY[Ac6c]HPH [SEQ ID NO: 37 (Sar-Arg-Val-Tyr-cyHex-His-Pro-His)],> 3.2,< 101,< 8.5,> 0.6,< 104,< 9.2,> 3.2,< 105,< 8.5,,,
[Sar]RVY[Ac6c]HPC [SEQ ID NO: 34 (Sar-Arg-Val-Tyr-cyHex-His-Pro-Cys)],> 3.2,< 101,< 8.5,,,,> 3.2,< 105,< 8.5,,,
[Sar]RVYPHPA [SEQ ID NO: 1 (Sar-Arg-Val-Tyr-Pro-His-Pro-Ala)],> 3.2,< 101,< 8.5,> 0.6,< 104,< 9.2,> 3.2,< 105,< 8.5,> 10000,> 9.2,
[Sar]RVY[Ac6c]HPN [SEQ ID NO: 36 (Sar-Arg-Val-Tyr-cyHex-His-Pro-Asn)],> 3.2,< 101,< 8.5,,,,> 3.2,< 105,< 8.5,,,
XRVYXHPA (not fully specified; X1 Sar; X5 NMeIle) [SEQ ID NO: 58 (Sar-Arg-Val-Tyr-NMeIle-His-Pro-Ala)],,< 101,,> 0.6,< 104,< 9.2,,< 105,,,,
[Sar]RVY[Ac6c]HPE [SEQ ID NO: 43 (Sar-Arg-Val-Tyr-cyHex-His-Pro-Glu)],> 3.2,< 101,< 8.5,,,,> 3.2,< 105,< 8.5,,,
[Sar]RVY[Ac6c]HP-NHiPr [SEQ ID NO: 46 (Sar-Arg-Val-Tyr-cyHex-His-Pro-NH-i-Pr)],> 3.2,< 101,< 8.5,,,,> 3.2,< 105,< 8.5,> 1.3,< 9.2,< 103
[Sar]RVY[Ac6c]HP[Aib] [SEQ ID NO: 35 (Sar-Arg-Val-Tyr-cyHex-His-Pro-AA01)],> 3.2,< 101,< 8.5,,,,> 3.2,< 105,< 8.5,,,
[Sar]RVY[Ac6c]HP [SEQ ID NO: 41 (Sar-Arg-Val-Tyr-cyHex-His-Pro)],> 3.2,< 101,< 8.5,,,,> 3.2,< 105,< 8.5,,,
[Sar]RVY[Aib]HPV [SEQ ID NO: 33 (Sar-Arg-Val-Tyr-AA01-His-Pro-Val)],> 3.2,< 101,< 8.5,,,,> 3.2,< 105,< 8.5,> 1.3,< 9.2,< 103
[Sar]RVY[Tle]HPV [SEQ ID NO: 29 (Sar-Arg-Val-Tyr-AA02-His-Pro-Val)],> 3.2,< 101,< 8.5,,,,> 3.2,< 105,< 8.5,,,
[Sar]KVY[Ac6c]HPA [SEQ ID NO: 51 (Sar-Lys-Val-Tyr-cyHex-His-Pro-Ala)],> 3.2,< 101,< 8.5,,,,> 3.2,< 105,< 8.5,> 1.3,< 9.2,< 103
[Sar]RVYXHPT (not fully specified (residue 5); printed as Sar-Arg-Val-Tyr-AA01-His-Pro-Thr) [SEQ ID NO: 40 (Sar-Arg-Val-Tyr-AA01-His-Pro-Thr)],> 3.2,< 101,< 8.5,,,,> 3.2,< 105,< 8.5,,,
[Sar]RVY[Ac6c]HPD [SEQ ID NO: 44 (Sar-Arg-Val-Tyr-cyHex-His-Pro-Asp)],> 3.2,< 101,< 8.5,> 0.6,< 104,< 9.2,> 3.2,< 105,< 8.5,,,
[Sar]RVY[Ac6c]HP-NHEt [SEQ ID NO: 48 (Sar-Arg-Val-Tyr-cyHex-His-Pro-NH-ethyl)],> 3.2,< 101,< 8.5,,,,> 3.2,< 105,< 8.5,,,

# Results, then the binder that gave them:
beta-arrestin2 assay EC50 [1] [nM],beta-arrestin2 assay Span [1],beta-arrestin2 assay pEC50 [1],IP1 G-protein assay EC50 [2] [nM],IP1 G-protein assay Span [2],IP1 G-protein assay pEC50 [2],beta-arrestin2 assay EC50 [3] [nM],beta-arrestin2 assay Span [3],beta-arrestin2 assay pEC50 [3],IP1 G-protein assay EC50 [4] [nM],IP1 G-protein assay pEC50 [4],IP1 G-protein assay Span [4],Binder
,,,> 0.6,,> 9.2,> 3.2,< 105,< 8.5,> 1.3,> 9.2,,[Sar]RVY[Ac6c]HPV [SEQ ID NO: 13 (Sar-Arg-Val-Tyr-cyHex-His-Pro-Val)]
> 3.2,< 101,< 8.5,,,,> 3.2,< 105,< 8.5,,,,[Sar]RVY[Ac6c]HPK [SEQ ID NO: 50 (Sar-Arg-Val-Tyr-cyHex-His-Pro-Lys)]
> 3.2,< 101,< 8.5,,,,> 3.2,< 105,< 8.5,,,,[Sar]RVY[Ac6c]HP-NHMe [SEQ ID NO: 49 (Sar-Arg-Val-Tyr-cyHex-His-Pro-NH-methyl)]
> 3.2,< 101,< 8.5,,,,> 3.2,< 105,< 8.5,> 1.3,< 9.2,< 103,[Sar]RVY[Ac6c]HPR [SEQ ID NO: 42 (Sar-Arg-Val-Tyr-cyHex-His-Pro-Arg)]
> 3.2,< 101,< 8.5,,,,> 3.2,< 105,< 8.5,,,,[Sar]RVY[Ac6c]HP[Val(3-OH)] [SEQ ID NO: 31 (Sar-Arg-Val-Tyr-cyHex-His-Pro-AA03)]
> 3.2,< 101,< 8.5,,,,> 3.2,< 105,< 8.5,,,,[Sar]RVY[Ac6c]HPG [SEQ ID NO: 32 (Sar-Arg-Val-Tyr-cyHex-His-Pro-Gly)]
> 3.2,< 101,< 8.5,,,,> 3.2,< 105,< 8.5,,,,[Sar]RV[dC]IHC[dA] (not fully specified; printed as Sar-Arg-Val-D-Cys-Ile-His-Cys-D-Ala; cysteine pairing not given here) [SEQ ID NO: 52 (Sar-Arg-Val-D-Cys-Ile-His-Cys-D-Ala)]
> 3.2,< 101,< 8.5,,,,> 3.2,< 105,< 8.5,,,,[Sar]RVY[Tle]HPT [SEQ ID NO: 30 (Sar-Arg-Val-Tyr-AA02-His-Pro-Thr)]
